Assay results as given in paper PMC9943673.

Key:
[1] = molecular target: TIN2 (UniProt Q9BSI4); test: biotin-peptide pull-down from nuclear extract, MS; details: reference: unphosphorylated peptide (TRF2-CTRL); sites S410
[2] = molecular target: TRF2-CTRL peptide labelled at the N-terminus with carboxyfluorescein (FAM) (human); test: fluorescence polarisation; fluorescence anisotropy; 3 nM FAM-peptide titrated with TIN2 to 500 nM; 50 mM NaCl, 50 mM phosphate buffer pH 7.0, 25 C
[3] = molecular target: TRF2-pS410 peptide labelled at the N-terminus with carboxyfluorescein (FAM) (human); test: as above
TRF2-pS410 peptide labelled at the N-terminus with carboxyfluorescein (FAM) (human), sequence (Q15554 401-420): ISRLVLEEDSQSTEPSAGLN

binding against the reference [1] | Kd [2] [nM] | Kd [3] [nM] | Substance
stronger | – | – | TRF2 (from UniProt Q15554) pS410 peptide
– | 240 | 180 | purified human TIN2 (from UniProt Q9BSI4 1-451) (natural protein)
